# From PMC6513101, “Experimentally guided computational antibody affinity maturation with de novo docking, modelling and rational design” (PLoS Computational Biology, 2019)
# Target: T1, biotinylated murine CCL20 (Mus musculus, UniProt O89093, biotin)
# T1 construct: CCL20, mouse; recombinant; m2 with biotin; also called biotinylated muCCL20; muCCL20 antigen; source: in-house, standard mammalian cell expression; biotinylated
# Experiment: ELISA; capture ELISA: plate-coated anti-mouse Fc antibody (1 ug/mL) captures the antibody variant (5 ug/mL); biotinylated muCCL20 titrated from 0 to 600 nM, 1 h
# Details: both partners purified
binder,measurement,value
"AB1 alanine variant 19 (H:Y26A) (antibody, V domains shown, IMGT numbering; IgG1, as m1; also called control; source: HEK293FT, transiently transfected, purified (Protein A)) VH: QVQLQQSGAELAKPGSSVKISCKAAGSSFTTNSIHWIKQTTGQALEWTGYIAPGSGGARYNEKFKGKATLTVDKSSGTAYMQLSSLTPVDTAVYYCALNIGTNPFTYWGQGTLVTVSS VL: DIVMTQGALPNPVPSGESVSITCRSSKSLLYSDGKTYLNWYLQRPGQSPQLLIYWMSTRASGVSDRFSGSGSGTDFTLKISGVEAEDVGVYYCQQGLEFPRTFGSGTKLEIK",binding result,binds
"AB1 affinity maturation variant 9 (H:T110W) (antibody, V domains shown, IMGT numbering; IgG1, as m1; source: HEK293FT, transiently transfected, purified (Protein A)) VH: QVQLQQSGAELAKPGSSVKISCKAYGSSFTTNSIHWIKQTTGQALEWTGYIAPGSGGARYNEKFKGKATLTVDKSSGTAYMQLSSLTPVDTAVYYCALNIGWNPFTYWGQGTLVTVSS VL: DIVMTQGALPNPVPSGESVSITCRSSKSLLYSDGKTYLNWYLQRPGQSPQLLIYWMSTRASGVSDRFSGSGSGTDFTLKISGVEAEDVGVYYCQQGLEFPRTFGSGTKLEIK",binding result,binds
"AB1 affinity maturation variant 12 (H:F115H) (antibody, V domains shown, IMGT numbering; IgG1, as m1; source: HEK293FT, transiently transfected, purified (Protein A)) VH: QVQLQQSGAELAKPGSSVKISCKAYGSSFTTNSIHWIKQTTGQALEWTGYIAPGSGGARYNEKFKGKATLTVDKSSGTAYMQLSSLTPVDTAVYYCALNIGTNPHTYWGQGTLVTVSS VL: DIVMTQGALPNPVPSGESVSITCRSSKSLLYSDGKTYLNWYLQRPGQSPQLLIYWMSTRASGVSDRFSGSGSGTDFTLKISGVEAEDVGVYYCQQGLEFPRTFGSGTKLEIK",binding result,binds
"AB1 affinity maturation variant 13 (H:T116R) (antibody, V domains shown, IMGT numbering; IgG1, as m1; source: HEK293FT, transiently transfected, purified (Protein A)) VH: QVQLQQSGAELAKPGSSVKISCKAYGSSFTTNSIHWIKQTTGQALEWTGYIAPGSGGARYNEKFKGKATLTVDKSSGTAYMQLSSLTPVDTAVYYCALNIGTNPFRYWGQGTLVTVSS VL: DIVMTQGALPNPVPSGESVSITCRSSKSLLYSDGKTYLNWYLQRPGQSPQLLIYWMSTRASGVSDRFSGSGSGTDFTLKISGVEAEDVGVYYCQQGLEFPRTFGSGTKLEIK",binding result,binds
"AB1 affinity maturation variant 2 (H:S29D) (antibody, V domains shown, IMGT numbering; IgG1, as m1; source: HEK293FT, transiently transfected, purified (Protein A)) VH: QVQLQQSGAELAKPGSSVKISCKAYGSDFTTNSIHWIKQTTGQALEWTGYIAPGSGGARYNEKFKGKATLTVDKSSGTAYMQLSSLTPVDTAVYYCALNIGTNPFTYWGQGTLVTVSS VL: DIVMTQGALPNPVPSGESVSITCRSSKSLLYSDGKTYLNWYLQRPGQSPQLLIYWMSTRASGVSDRFSGSGSGTDFTLKISGVEAEDVGVYYCQQGLEFPRTFGSGTKLEIK",binding result,binds
"AB1 affinity maturation variant 5 (H:G59Y) (antibody, V domains shown, IMGT numbering; IgG1, as m1; source: HEK293FT, transiently transfected, purified (Protein A)) VH: QVQLQQSGAELAKPGSSVKISCKAYGSSFTTNSIHWIKQTTGQALEWTGYIAPYSGGARYNEKFKGKATLTVDKSSGTAYMQLSSLTPVDTAVYYCALNIGTNPFTYWGQGTLVTVSS VL: DIVMTQGALPNPVPSGESVSITCRSSKSLLYSDGKTYLNWYLQRPGQSPQLLIYWMSTRASGVSDRFSGSGSGTDFTLKISGVEAEDVGVYYCQQGLEFPRTFGSGTKLEIK",binding result,binds
"AB1 affinity maturation variant 15 (L:D34Q) (antibody, V domains shown, IMGT numbering; IgG1, as m1; source: HEK293FT, transiently transfected, purified (Protein A)) VH: QVQLQQSGAELAKPGSSVKISCKAYGSSFTTNSIHWIKQTTGQALEWTGYIAPGSGGARYNEKFKGKATLTVDKSSGTAYMQLSSLTPVDTAVYYCALNIGTNPFTYWGQGTLVTVSS VL: DIVMTQGALPNPVPSGESVSITCRSSKSLLYSQGKTYLNWYLQRPGQSPQLLIYWMSTRASGVSDRFSGSGSGTDFTLKISGVEAEDVGVYYCQQGLEFPRTFGSGTKLEIK",binding result,binds
"AB1 affinity maturation variant 3 (H:T36Q) (antibody, V domains shown, IMGT numbering; IgG1, as m1; source: HEK293FT, transiently transfected, purified (Protein A)) VH: QVQLQQSGAELAKPGSSVKISCKAYGSSFTQNSIHWIKQTTGQALEWTGYIAPGSGGARYNEKFKGKATLTVDKSSGTAYMQLSSLTPVDTAVYYCALNIGTNPFTYWGQGTLVTVSS VL: DIVMTQGALPNPVPSGESVSITCRSSKSLLYSDGKTYLNWYLQRPGQSPQLLIYWMSTRASGVSDRFSGSGSGTDFTLKISGVEAEDVGVYYCQQGLEFPRTFGSGTKLEIK",binding result,binds
"AB1 affinity maturation variant 6 (H:G64T) (antibody, V domains shown, IMGT numbering; IgG1, as m1; source: HEK293FT, transiently transfected, purified (Protein A)) VH: QVQLQQSGAELAKPGSSVKISCKAYGSSFTTNSIHWIKQTTGQALEWTGYIAPGSGTARYNEKFKGKATLTVDKSSGTAYMQLSSLTPVDTAVYYCALNIGTNPFTYWGQGTLVTVSS VL: DIVMTQGALPNPVPSGESVSITCRSSKSLLYSDGKTYLNWYLQRPGQSPQLLIYWMSTRASGVSDRFSGSGSGTDFTLKISGVEAEDVGVYYCQQGLEFPRTFGSGTKLEIK",binding result,binds
"AB1 affinity maturation variant 10 (H:T110F) (antibody, V domains shown, IMGT numbering; IgG1, as m1; source: HEK293FT, transiently transfected, purified (Protein A)) VH: QVQLQQSGAELAKPGSSVKISCKAYGSSFTTNSIHWIKQTTGQALEWTGYIAPGSGGARYNEKFKGKATLTVDKSSGTAYMQLSSLTPVDTAVYYCALNIGFNPFTYWGQGTLVTVSS VL: DIVMTQGALPNPVPSGESVSITCRSSKSLLYSDGKTYLNWYLQRPGQSPQLLIYWMSTRASGVSDRFSGSGSGTDFTLKISGVEAEDVGVYYCQQGLEFPRTFGSGTKLEIK",binding result,binds
"AB1 affinity maturation variant 4 (H:N37T) (antibody, V domains shown, IMGT numbering; IgG1, as m1; source: HEK293FT, transiently transfected, purified (Protein A)) VH: QVQLQQSGAELAKPGSSVKISCKAYGSSFTTTSIHWIKQTTGQALEWTGYIAPGSGGARYNEKFKGKATLTVDKSSGTAYMQLSSLTPVDTAVYYCALNIGTNPFTYWGQGTLVTVSS VL: DIVMTQGALPNPVPSGESVSITCRSSKSLLYSDGKTYLNWYLQRPGQSPQLLIYWMSTRASGVSDRFSGSGSGTDFTLKISGVEAEDVGVYYCQQGLEFPRTFGSGTKLEIK",binding result,binds
"AB1 affinity maturation variant 7 (H:A65Y) (antibody, V domains shown, IMGT numbering; IgG1, as m1; source: HEK293FT, transiently transfected, purified (Protein A)) VH: QVQLQQSGAELAKPGSSVKISCKAYGSSFTTNSIHWIKQTTGQALEWTGYIAPGSGGYRYNEKFKGKATLTVDKSSGTAYMQLSSLTPVDTAVYYCALNIGTNPFTYWGQGTLVTVSS VL: DIVMTQGALPNPVPSGESVSITCRSSKSLLYSDGKTYLNWYLQRPGQSPQLLIYWMSTRASGVSDRFSGSGSGTDFTLKISGVEAEDVGVYYCQQGLEFPRTFGSGTKLEIK",binding result,binds
"AB1 affinity maturation variant 17 (L:K36R) (antibody, V domains shown, IMGT numbering; IgG1, as m1; source: HEK293FT, transiently transfected, purified (Protein A)) VH: QVQLQQSGAELAKPGSSVKISCKAYGSSFTTNSIHWIKQTTGQALEWTGYIAPGSGGARYNEKFKGKATLTVDKSSGTAYMQLSSLTPVDTAVYYCALNIGTNPFTYWGQGTLVTVSS VL: DIVMTQGALPNPVPSGESVSITCRSSKSLLYSDGRTYLNWYLQRPGQSPQLLIYWMSTRASGVSDRFSGSGSGTDFTLKISGVEAEDVGVYYCQQGLEFPRTFGSGTKLEIK",binding result,binds
"AB1 affinity maturation variant 14 (L:S32D) (antibody, V domains shown, IMGT numbering; IgG1, as m1; source: HEK293FT, transiently transfected, purified (Protein A)) VH: QVQLQQSGAELAKPGSSVKISCKAYGSSFTTNSIHWIKQTTGQALEWTGYIAPGSGGARYNEKFKGKATLTVDKSSGTAYMQLSSLTPVDTAVYYCALNIGTNPFTYWGQGTLVTVSS VL: DIVMTQGALPNPVPSGESVSITCRSSKSLLYDDGKTYLNWYLQRPGQSPQLLIYWMSTRASGVSDRFSGSGSGTDFTLKISGVEAEDVGVYYCQQGLEFPRTFGSGTKLEIK",binding result,binds
"AB1 alanine variant 5 (H:Y55A, H:R66A, L:Y31A) (antibody, V domains shown, IMGT numbering; IgG1, as m1; source: HEK293FT, transiently transfected, purified (Protein A)) VH: QVQLQQSGAELAKPGSSVKISCKAYGSSFTTNSIHWIKQTTGQALEWTGAIAPGSGGAAYNEKFKGKATLTVDKSSGTAYMQLSSLTPVDTAVYYCALNIGTNPFTYWGQGTLVTVSS VL: DIVMTQGALPNPVPSGESVSITCRSSKSLLASDGKTYLNWYLQRPGQSPQLLIYWMSTRASGVSDRFSGSGSGTDFTLKISGVEAEDVGVYYCQQGLEFPRTFGSGTKLEIK",binding result,binds
"AB1 alanine variant 16 (L:K36A) (antibody, V domains shown, IMGT numbering; IgG1, as m1; source: HEK293FT, transiently transfected, purified (Protein A)) VH: QVQLQQSGAELAKPGSSVKISCKAYGSSFTTNSIHWIKQTTGQALEWTGYIAPGSGGARYNEKFKGKATLTVDKSSGTAYMQLSSLTPVDTAVYYCALNIGTNPFTYWGQGTLVTVSS VL: DIVMTQGALPNPVPSGESVSITCRSSKSLLYSDGATYLNWYLQRPGQSPQLLIYWMSTRASGVSDRFSGSGSGTDFTLKISGVEAEDVGVYYCQQGLEFPRTFGSGTKLEIK",fold reduction of binding affinity against WT AB1,3 fold
"AB1 affinity maturation variant 18 (L:Y38R) (antibody, V domains shown, IMGT numbering; IgG1, as m1; source: HEK293FT, transiently transfected, purified (Protein A)) VH: QVQLQQSGAELAKPGSSVKISCKAYGSSFTTNSIHWIKQTTGQALEWTGYIAPGSGGARYNEKFKGKATLTVDKSSGTAYMQLSSLTPVDTAVYYCALNIGTNPFTYWGQGTLVTVSS VL: DIVMTQGALPNPVPSGESVSITCRSSKSLLYSDGKTRLNWYLQRPGQSPQLLIYWMSTRASGVSDRFSGSGSGTDFTLKISGVEAEDVGVYYCQQGLEFPRTFGSGTKLEIK",binding result,binds
"AB1 alanine variant 1 (H:S29A) (antibody, V domains shown, IMGT numbering; IgG1, as m1; source: HEK293FT, transiently transfected, purified (Protein A)) VH: QVQLQQSGAELAKPGSSVKISCKAYGSAFTTNSIHWIKQTTGQALEWTGYIAPGSGGARYNEKFKGKATLTVDKSSGTAYMQLSSLTPVDTAVYYCALNIGTNPFTYWGQGTLVTVSS VL: DIVMTQGALPNPVPSGESVSITCRSSKSLLYSDGKTYLNWYLQRPGQSPQLLIYWMSTRASGVSDRFSGSGSGTDFTLKISGVEAEDVGVYYCQQGLEFPRTFGSGTKLEIK",binding result,binds
"AB1 affinity maturation variant 8 (H:I108R) (antibody, V domains shown, IMGT numbering; IgG1, as m1; source: HEK293FT, transiently transfected, purified (Protein A)) VH: QVQLQQSGAELAKPGSSVKISCKAYGSSFTTNSIHWIKQTTGQALEWTGYIAPGSGGARYNEKFKGKATLTVDKSSGTAYMQLSSLTPVDTAVYYCALNRGTNPFTYWGQGTLVTVSS VL: DIVMTQGALPNPVPSGESVSITCRSSKSLLYSDGKTYLNWYLQRPGQSPQLLIYWMSTRASGVSDRFSGSGSGTDFTLKISGVEAEDVGVYYCQQGLEFPRTFGSGTKLEIK",binding result,binds
"AB1 affinity maturation variant 11 (H:N113R) (antibody, V domains shown, IMGT numbering; IgG1, as m1; source: HEK293FT, transiently transfected, purified (Protein A)) VH: QVQLQQSGAELAKPGSSVKISCKAYGSSFTTNSIHWIKQTTGQALEWTGYIAPGSGGARYNEKFKGKATLTVDKSSGTAYMQLSSLTPVDTAVYYCALNIGTRPFTYWGQGTLVTVSS VL: DIVMTQGALPNPVPSGESVSITCRSSKSLLYSDGKTYLNWYLQRPGQSPQLLIYWMSTRASGVSDRFSGSGSGTDFTLKISGVEAEDVGVYYCQQGLEFPRTFGSGTKLEIK",binding result,binds
"AB1 alanine variant 20 (L:S26A) (antibody, V domains shown, IMGT numbering; IgG1, as m1; also called control; source: HEK293FT, transiently transfected, purified (Protein A)) VH: QVQLQQSGAELAKPGSSVKISCKAYGSSFTTNSIHWIKQTTGQALEWTGYIAPGSGGARYNEKFKGKATLTVDKSSGTAYMQLSSLTPVDTAVYYCALNIGTNPFTYWGQGTLVTVSS VL: DIVMTQGALPNPVPSGESVSITCRSAKSLLYSDGKTYLNWYLQRPGQSPQLLIYWMSTRASGVSDRFSGSGSGTDFTLKISGVEAEDVGVYYCQQGLEFPRTFGSGTKLEIK",binding result,binds
